Common to all, as to assay: cell_activity; E. coli
Holding throughout (conditions): tags: 6-His

Series [1] has as its target T1, sN-TALER IIb-1 (synthetic).
T1 chain: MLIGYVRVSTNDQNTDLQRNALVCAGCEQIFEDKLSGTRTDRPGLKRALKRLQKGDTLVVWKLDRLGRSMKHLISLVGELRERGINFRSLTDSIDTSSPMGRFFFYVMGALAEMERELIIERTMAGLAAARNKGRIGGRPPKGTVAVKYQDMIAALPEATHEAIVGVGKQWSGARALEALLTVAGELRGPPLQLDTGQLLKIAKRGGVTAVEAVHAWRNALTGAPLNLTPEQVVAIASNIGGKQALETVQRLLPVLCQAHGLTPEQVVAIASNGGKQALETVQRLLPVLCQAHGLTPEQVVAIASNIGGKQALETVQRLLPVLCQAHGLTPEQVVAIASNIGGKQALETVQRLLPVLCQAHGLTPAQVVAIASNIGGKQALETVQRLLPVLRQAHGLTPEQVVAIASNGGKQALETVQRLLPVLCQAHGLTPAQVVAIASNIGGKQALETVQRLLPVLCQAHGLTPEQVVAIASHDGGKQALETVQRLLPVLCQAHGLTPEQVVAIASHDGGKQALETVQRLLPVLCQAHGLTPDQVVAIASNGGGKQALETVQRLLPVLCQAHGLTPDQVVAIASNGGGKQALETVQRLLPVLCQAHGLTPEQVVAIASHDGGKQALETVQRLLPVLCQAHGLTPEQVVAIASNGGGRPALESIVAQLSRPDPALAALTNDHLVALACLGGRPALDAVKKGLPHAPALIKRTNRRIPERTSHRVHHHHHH
In a few lines:
(§1)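 DH5alpha cells co-transformed (heat shock or electroporation) with N-TALER expression and reporter plasmids at ~1:1 mass ratio; reporter alone as control. Plated on chloramphenicol/kanamycin/X-gal, grown 37° C. for 18 to 36 hours; recombination scored by colony colour.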

In series [2] the target is T2, pN-TALER IV-1-EE3 (synthetic).
T2 chain: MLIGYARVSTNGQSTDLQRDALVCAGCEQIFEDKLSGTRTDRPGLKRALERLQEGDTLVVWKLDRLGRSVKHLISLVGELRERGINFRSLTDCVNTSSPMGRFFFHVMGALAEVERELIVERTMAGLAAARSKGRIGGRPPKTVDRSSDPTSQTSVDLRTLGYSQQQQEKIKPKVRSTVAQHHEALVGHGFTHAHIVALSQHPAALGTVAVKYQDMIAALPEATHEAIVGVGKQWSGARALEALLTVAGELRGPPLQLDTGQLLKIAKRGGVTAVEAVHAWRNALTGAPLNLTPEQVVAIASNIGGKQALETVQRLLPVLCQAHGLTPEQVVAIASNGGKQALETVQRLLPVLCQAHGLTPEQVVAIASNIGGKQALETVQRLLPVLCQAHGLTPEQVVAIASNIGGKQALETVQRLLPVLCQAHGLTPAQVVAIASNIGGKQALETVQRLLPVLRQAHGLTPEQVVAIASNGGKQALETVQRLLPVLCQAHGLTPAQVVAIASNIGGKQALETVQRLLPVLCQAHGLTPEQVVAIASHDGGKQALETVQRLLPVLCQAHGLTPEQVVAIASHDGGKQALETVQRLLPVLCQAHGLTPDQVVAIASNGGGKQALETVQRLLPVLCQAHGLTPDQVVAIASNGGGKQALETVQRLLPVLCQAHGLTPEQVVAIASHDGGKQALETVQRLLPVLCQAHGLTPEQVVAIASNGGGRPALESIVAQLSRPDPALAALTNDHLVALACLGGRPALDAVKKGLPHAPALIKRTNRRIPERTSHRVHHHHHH

For series [3], the target named is T3, sN-TALER IV-5 (synthetic).
T3 chain: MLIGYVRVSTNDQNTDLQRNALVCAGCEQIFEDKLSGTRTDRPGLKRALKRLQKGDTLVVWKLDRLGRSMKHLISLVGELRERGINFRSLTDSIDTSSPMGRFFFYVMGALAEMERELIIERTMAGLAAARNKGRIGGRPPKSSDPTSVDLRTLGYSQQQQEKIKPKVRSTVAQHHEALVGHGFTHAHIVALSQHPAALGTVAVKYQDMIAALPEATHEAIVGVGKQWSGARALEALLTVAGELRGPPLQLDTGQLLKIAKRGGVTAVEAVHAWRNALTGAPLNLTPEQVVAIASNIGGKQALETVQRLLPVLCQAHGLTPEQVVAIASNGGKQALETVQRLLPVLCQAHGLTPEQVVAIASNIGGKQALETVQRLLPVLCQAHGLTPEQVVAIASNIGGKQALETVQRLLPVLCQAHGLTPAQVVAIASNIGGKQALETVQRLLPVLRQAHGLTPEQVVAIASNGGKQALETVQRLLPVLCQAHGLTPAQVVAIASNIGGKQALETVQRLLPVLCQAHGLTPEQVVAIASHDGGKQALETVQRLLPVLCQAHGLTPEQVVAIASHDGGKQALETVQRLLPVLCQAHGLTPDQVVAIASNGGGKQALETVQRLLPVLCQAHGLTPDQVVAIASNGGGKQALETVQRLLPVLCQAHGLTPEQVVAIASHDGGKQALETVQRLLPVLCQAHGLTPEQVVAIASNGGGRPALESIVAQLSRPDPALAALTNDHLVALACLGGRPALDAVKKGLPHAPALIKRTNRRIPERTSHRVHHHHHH
In a few lines: as §1

B1: Gin18TALE+0 (dsDNA)
DNA 1: AGAAGGTATTTATACCAAAACCATGGTTTACATATAAATACCTTCT
DNA 2: AGAAGGTATTTATATGTAAACCATGGTTTTGGTATAAATACCTTCT
On to B1, for which the activity in series [1] and in series [2] was 3 score in each case.

B2: Gin20TALE+0 (dsDNA)
DNA 1: AGAAGGTATTTATATCCAAAACCATGGTTTACAGTATAAATACCTTCT
DNA 2: AGAAGGTATTTATACTGTAAACCATGGTTTTGGATATAAATACCTTCT
B2: the activity in series [3] came out at 4.5 score.

The values are drawn from patent US20140193915, “COMPOSITIONS AND METHODS FOR CUSTOM SITE-SPECIFIC DNA RECOMBINASES” (Monsanto Technology, LLC, published 2014).
